Results reported in article PMC6589570 (Molecular Biology of the Cell, 2019).

Molecular target: T1, cytosolic domain of SEC12 (PREB), his-tagged (UniProt Q9HCU5 1-388)
T1 sequence (looked up): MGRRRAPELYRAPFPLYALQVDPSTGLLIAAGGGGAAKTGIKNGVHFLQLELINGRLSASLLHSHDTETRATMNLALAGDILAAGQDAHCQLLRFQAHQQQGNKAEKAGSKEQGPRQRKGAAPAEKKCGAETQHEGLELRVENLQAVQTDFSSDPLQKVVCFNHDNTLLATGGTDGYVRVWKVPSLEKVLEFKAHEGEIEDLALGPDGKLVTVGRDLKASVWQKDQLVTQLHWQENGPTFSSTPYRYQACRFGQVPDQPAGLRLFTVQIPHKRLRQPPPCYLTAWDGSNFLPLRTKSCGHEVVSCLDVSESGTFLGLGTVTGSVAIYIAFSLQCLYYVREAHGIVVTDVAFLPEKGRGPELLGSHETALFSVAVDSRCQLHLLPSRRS
Assay: liposome flotation

B1: fatty-acid binding protein 5 (FABP5), rat (natural protein, UniProt P55053 1-135, looked up)
chain: MASLKDLEGKWRLVESHGFEDYMKELGVGLALRKMGAMAKPDCIITLDGNNLTVKTESTVKTTVFSCTLGEKFDETTADGRKTETVCTFTDGALVQHQKWEGKESTITRKLKDGKMVVECVMNNAICTRVYEKVQ
With B1 the “fold recruitment to liposomes with SEC12 against without SEC12” value was roughly 3.5 fold.
